In patent US20240376185A1 (SMIVET B V, published 2024):

Tests used:
[1] = biological target: T1, tetanus neurotoxin (TeNT), authentic tetanus holotoxin (Clostridium tetani, UniProt P04958 2-1315); test: competition ELISA on TeNT, binder biotinylated; competitor SVT08L
[2] = biological target: T1, tetanus neurotoxin (TeNT), authentic …; test: ELISA, TeNT captured with coated mAb 6E7
[3] = biological target: T1, tetanus neurotoxin (TeNT), authentic …; test: GT1b-TeNT inhibition ELISA, EC at A450 0.59
[4] = biological target: T2, recombinant tetanus toxin fragment C (rTTC) (Clostridium tetani, UniProt P04958 865-1315); test: ELISA, rTTC captured with coated mAb 6E7
T2 sequence: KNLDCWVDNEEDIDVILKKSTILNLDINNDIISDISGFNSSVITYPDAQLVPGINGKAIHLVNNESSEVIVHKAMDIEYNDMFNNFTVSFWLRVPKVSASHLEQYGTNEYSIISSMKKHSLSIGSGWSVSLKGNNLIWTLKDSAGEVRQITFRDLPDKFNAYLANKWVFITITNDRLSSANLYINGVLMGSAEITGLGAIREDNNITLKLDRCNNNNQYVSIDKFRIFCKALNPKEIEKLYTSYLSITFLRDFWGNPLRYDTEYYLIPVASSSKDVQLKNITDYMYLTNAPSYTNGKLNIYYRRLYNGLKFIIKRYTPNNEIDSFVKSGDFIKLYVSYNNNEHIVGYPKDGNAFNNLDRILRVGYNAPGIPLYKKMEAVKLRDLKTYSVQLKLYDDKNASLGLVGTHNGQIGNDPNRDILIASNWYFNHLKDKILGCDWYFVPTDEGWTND

[5] = biological target: T1, tetanus neurotoxin (TeNT), authentic …; test: competition ELISA on TeNT, binder biotinylated; competitor mAb 6E7
[6] = biological target: T1, tetanus neurotoxin (TeNT), authentic …; test: competition ELISA on TeNT, binder biotinylated; competitor SVT03L
[7] = biological target: T1, tetanus neurotoxin (TeNT), authentic …; test: ELISA, TeNT captured with cAb-TT2, unlabelled binder
[8] = biological target: T1, tetanus neurotoxin (TeNT), authentic …; test: competition ELISA on TeNT, binder biotinylated; competitor SVT06L
[9] = biological target: T1, tetanus neurotoxin (TeNT), authentic …; test: ELISA, directly coated TeNT, biotinylated binder
[10] = biological target: T1, tetanus neurotoxin (TeNT), authentic …; test: competition ELISA on TeNT, binder biotinylated; competitor mAb 11n185
[11] = biological target: T1, tetanus neurotoxin (TeNT), authentic …; test: ELISA, TeNT captured with cAb-TT2, biotinylated binder
[12] = biological target: T1, tetanus neurotoxin (TeNT), authentic …; test: competition ELISA on TeNT, binder biotinylated; competitor mAb 6F57
[13] = biological target: T1, tetanus neurotoxin (TeNT), authentic …; test: competition ELISA on TeNT, binder biotinylated; competitor mAb 14F5
[14] = biological target: T1, tetanus neurotoxin (TeNT), authentic …; test: competition ELISA on TeNT, binder biotinylated; competitor SVT22L
[15] = biological target: T1, tetanus neurotoxin (TeNT), authentic …; test: ELISA, directly coated TeNT
[16] = biological target: T1, tetanus neurotoxin (TeNT), authentic …; test: ELISA, directly coated TeNT, unlabelled binder
[17] = biological target: T1, tetanus neurotoxin (TeNT), authentic …; test: competition ELISA on TeNT, binder biotinylated; competitor SVT16L
[18] = biological target: T1, tetanus neurotoxin (TeNT), authentic …; test: GT1b-TeNT inhibition ELISA, unlabelled binder
[19] = biological target: T1, tetanus neurotoxin (TeNT), authentic …; test: competition ELISA on TeNT, binder biotinylated; competitor SVT34L
[20] = biological target: T2, recombinant tetanus toxin fragment C …; test: ELISA, directly coated rTTC, unlabelled binder
[21] = biological target: T1, tetanus neurotoxin (TeNT), authentic …; test: competition ELISA on TeNT, binder biotinylated; competitor SVT15L-3FW4M
[22] = biological target: T1, tetanus neurotoxin (TeNT), authentic …; test: competition ELISA on TeNT, binder biotinylated; competitor SVT15L
[23] = biological target: T1, tetanus neurotoxin (TeNT), authentic …; test: competition ELISA on TeNT, binder biotinylated; competitor SVT13L
[24] = biological target: T1, tetanus neurotoxin (TeNT), authentic …; test: competition ELISA on TeNT, binder biotinylated; competitor SVT02L
[25] = biological target: T3, dog serum albumin (dog, UniProt P49822 25-608); test: ELISA, coated albumin, E. coli supernatant
T3 construct: mature; also called dog Alb; Canine albumin

[26] = biological target: T4, horse serum albumin (horse, UniProt P35747 25-607); test: ELISA, coated albumin, E. coli supernatant
T4 construct: mature; also called horse Alb; Equine albumin

[27] = biological target: T5, human serum albumin (human, UniProt P02768 25-609); test: ELISA, coated albumin, E. coli supernatant
T5 construct: mature; also called human Alb

[28] = biological target: T5, human serum albumin; test: ELISA, E. coli supernatant
[29] = biological target: T6, dog albumin (dog Alb) (dog, UniProt P49822 25-608); test: ELISA: coated dog Alb, anti-his6 PO
T6 construct: also called Canine albumin

[30] = biological target: T6, dog albumin (dog Alb); test: ELISA: coated dog Alb, anti-his6 PO; remark: listed apart in the source

Row | Binder | % inhibition of binding [1] [%] | absorbance at 450 nm [2] | concentration giving A450 of 0.59 [3] [µg/mL] | absorbance at 450 nm [4] | % inhibition of binding [5] [%] | % inhibition of binding [6] [%] | EC resulting in A450 0.15 [7] [ng/mL] | maximal absorbance at 450 nm [7] | % inhibition of binding [8] [%] | EC resulting in A450 0.4 [9] [ng/mL] | maximal absorbance at 450 nm [9] | % inhibition of binding [10] [%] | EC resulting in A450 0.2 [11] [ng/mL] | maximal absorbance at 450 nm [11] | % inhibition of binding [12] [%] | % inhibition of binding [13] [%] | absorbance at 450 nm [25] [A450] | absorbance at 450 nm [26] [A450] | absorbance at 450 nm [27] [A450] | binding result [28] | further results
1 | SVT15L-3FW4M (VHH) VHH: QVQLQESGGGLVQTGGSLRLSCRASGRAFANYHFGWFRQAPGKDREFVASISWKGGSTYYANFALGRFTSSVDRAESSVYLQMSGLTPEDTATYYCAAHDGGDWNYHTGMDYWGQGTQVTVSS | 6 | 0.236 | 0.039 | 0.528 | 6 | -8 | 9.8 | 0.195 | 7 | 2 | 1.37 | -1 | 3.5 | 0.697 | 6 | 2 | – | – | – | – | % inhibition of binding [14]: 4%; absorbance at 450 nm [15]: 0.477; EC resulting in A450 0.2 [16]: 3.8 ng/mL; maximal absorbance at 450 nm [16]: 0.817; % inhibition of binding [17]: 3%; minimal absorbance at 450 nm [18]: 0.127; % inhibition of binding [19]: 3%; maximal absorbance at 450 nm [20]: 0.206; % inhibition of binding [21]: 95%; % inhibition of binding [22]: 96%; % inhibition of binding [23]: -5%; % inhibition of binding [24]: 10%
2 | SVT16L (VHH) VHH: QVQLQESGGGSVQAGDSLRLSCAASGRTISNYAMGWFRQAPGKQREFVAAISRSDNTYYTDSVKGRFTISRDNAKNTLYLQMNSLKPEETAVYYCAADPNLMYESKWKYRALEAWGQGTLVTVSS | 2 | 1.13 | 0.047 | 1.38 | 6 | -1 | 3.2 | 0.363 | -8 | 0.52 | 1.42 | -2 | 1.6 | 0.971 | 2 | 6 | – | – | – | – | % inhibition of binding [14]: 96%; absorbance at 450 nm [15]: 1.27; EC resulting in A450 0.2 [16]: 1.1 ng/mL; maximal absorbance at 450 nm [16]: 1.57; % inhibition of binding [17]: 95%; minimal absorbance at 450 nm [18]: 0.129; % inhibition of binding [19]: 95%; maximal absorbance at 450 nm [20]: 1.01; % inhibition of binding [21]: 17%; % inhibition of binding [22]: 12%; % inhibition of binding [23]: 96%; % inhibition of binding [24]: 13%
3 | SVA16 (VHH, not shown: large carriers) VHH: QVQLQESGGGVVQAGGSLRLSCAASGRTVSSSAMGWFRLAPGKEREFVVGISRSGGSIFYADSVKGRFTISRKNAKNTVDLQMNSLKPEDTAVYYCAAGYRPGYGDYGRVFYREDEYDDWGQGTQVTVSS | – | – | – | – | – | – | – | – | – | – | – | – | – | – | – | – | 2.02 | 2.11 | 0.083 | no binding | –
4 | SVA06 (VHH) VHH: QVQLQESGGRLVQAEDSLRLSCAASGRTFVSYDMGWFRQAPGKEREFVAAINWRGYTTDYVDSVKGRFFISRDIAKSTVYLQMNNLKPEDTAVYYCAARQMSGSSRYSPPGRVGYDFWGQGTQVTVSS | – | – | – | – | – | – | – | – | – | – | – | – | – | – | – | – | 1.99 | 1.66 | 0.067 | no binding | –
5 | SVT16-L123Q-GS2-SVA12M2-H6 (bispecific antibody) QVQLQESGGGSVQAGDSLRLSCAASGRTISNYAMGWFRQAPGKQREFVAAISRSDNTYYTDSVKGRFTISRDNAKNTLYLQMNSLKPEETAVYYCAADPNLMYESKWKYRALEAWGQGTQVTVSSGGGGSGGGSEVQLVESGGGLVQAGGSLRLSCAASGRTFSYYPMAWFRQAPGQEREFVAAIIGADTTYYADSLKGRFTISRDNAKNMVYLQMNSLKPEDTAVYYCAARNTYWSDVYYREGQYTNWGQGTQVTVSSHHHHHH | – | – | – | – | – | – | – | – | – | – | – | – | – | – | – | – | – | – | – | – | maximal absorbance value [29]: 1.78 A450; Effective SDA Concentration at A450 0.2 [30]: 34 ng/mL
6 | SVA02 (VHH, not shown: large carriers) VHH: QVQLQQSGGGLVQAGGSLRLSCAASGRFFSRQVMGWFRQAPGKDREFVGVISWDNGVTFYSDSVKGRFTMSREIAKKTVHLQMNSLKPEDTAVYYCAAGNALHSRYYSPSKYDYWGPGTQVTVSS | – | – | – | – | – | – | – | – | – | – | – | – | – | – | – | – | 1.87 | 1.9 | 0.065 | no binding | –
